Data from patent US6458926.

Molecular target: GAL-RXR (yeast GAL4 DBD linked to the human RXRα LBD) (yeast; human) (UniProt P04386)
Test: cell-based or functional assay

Chain of T3R LBD (SV40 TAg NLS fused upstream of human T3Rβ LBD) (P10828 other isoform, or with tags, fused parts or gaps): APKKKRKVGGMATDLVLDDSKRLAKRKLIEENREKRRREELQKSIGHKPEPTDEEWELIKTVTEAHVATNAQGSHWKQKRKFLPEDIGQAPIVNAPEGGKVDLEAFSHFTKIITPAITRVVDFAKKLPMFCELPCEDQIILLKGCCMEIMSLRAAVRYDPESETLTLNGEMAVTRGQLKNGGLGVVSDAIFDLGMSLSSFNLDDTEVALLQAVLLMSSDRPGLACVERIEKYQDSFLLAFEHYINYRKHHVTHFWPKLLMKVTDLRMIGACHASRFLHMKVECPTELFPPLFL

For “T3R LBD (SV40 TAg NLS fused upstream of human T3Rβ LBD) (from UniProt P10828 173-456)”, the fold response to LG69 was 57 fold.
